# Laboratory results reported in paper PMC8545111, “Molecular Basis of the Versatile Regulatory Mechanism of HtrA-Type Protease AlgW from Pseudomonas aeruginosa” (mBio, 2021).
# T1: AlgW-Y212A (Pseudomonas aeruginosa, UniProt Q9HVX1 30-389, Y212A)
# T1 sequence: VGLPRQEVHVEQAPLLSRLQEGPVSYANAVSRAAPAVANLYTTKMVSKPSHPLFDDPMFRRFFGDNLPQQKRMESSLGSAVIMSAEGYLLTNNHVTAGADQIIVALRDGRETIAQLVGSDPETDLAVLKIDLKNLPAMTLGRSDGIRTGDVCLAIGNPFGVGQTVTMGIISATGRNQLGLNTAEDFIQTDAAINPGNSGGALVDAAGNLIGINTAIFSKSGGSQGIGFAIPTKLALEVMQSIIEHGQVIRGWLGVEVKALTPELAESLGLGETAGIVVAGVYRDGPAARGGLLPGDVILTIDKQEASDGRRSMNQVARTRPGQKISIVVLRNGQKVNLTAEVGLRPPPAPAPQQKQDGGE
# T2: AlgW-W281A (Pseudomonas aeruginosa, UniProt Q9HVX1 30-389, W281A)
# T2 sequence: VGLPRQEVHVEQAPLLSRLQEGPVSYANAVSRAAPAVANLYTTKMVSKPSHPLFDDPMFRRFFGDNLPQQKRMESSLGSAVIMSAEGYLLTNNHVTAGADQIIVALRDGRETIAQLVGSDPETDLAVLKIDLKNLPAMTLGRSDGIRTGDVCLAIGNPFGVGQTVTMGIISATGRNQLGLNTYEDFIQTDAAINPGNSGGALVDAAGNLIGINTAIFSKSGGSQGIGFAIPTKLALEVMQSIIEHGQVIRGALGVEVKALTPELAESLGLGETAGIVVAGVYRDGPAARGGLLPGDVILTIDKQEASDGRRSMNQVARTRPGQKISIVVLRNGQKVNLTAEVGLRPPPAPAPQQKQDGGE
# T3: AlgW-R347A (Pseudomonas aeruginosa, UniProt Q9HVX1 30-389, R347A)
# T3 sequence: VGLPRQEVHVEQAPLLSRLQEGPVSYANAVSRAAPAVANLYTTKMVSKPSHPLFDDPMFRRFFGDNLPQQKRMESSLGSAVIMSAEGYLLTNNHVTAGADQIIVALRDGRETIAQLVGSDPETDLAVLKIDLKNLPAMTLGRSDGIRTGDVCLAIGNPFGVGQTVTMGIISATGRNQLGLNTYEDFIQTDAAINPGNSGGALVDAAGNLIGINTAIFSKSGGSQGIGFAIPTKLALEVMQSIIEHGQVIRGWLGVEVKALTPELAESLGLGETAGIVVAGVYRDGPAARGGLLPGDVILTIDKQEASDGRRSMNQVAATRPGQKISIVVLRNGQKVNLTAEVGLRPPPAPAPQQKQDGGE
# T4: AlgW-E266A (Pseudomonas aeruginosa, UniProt Q9HVX1 30-389, E266A)
# T4 sequence: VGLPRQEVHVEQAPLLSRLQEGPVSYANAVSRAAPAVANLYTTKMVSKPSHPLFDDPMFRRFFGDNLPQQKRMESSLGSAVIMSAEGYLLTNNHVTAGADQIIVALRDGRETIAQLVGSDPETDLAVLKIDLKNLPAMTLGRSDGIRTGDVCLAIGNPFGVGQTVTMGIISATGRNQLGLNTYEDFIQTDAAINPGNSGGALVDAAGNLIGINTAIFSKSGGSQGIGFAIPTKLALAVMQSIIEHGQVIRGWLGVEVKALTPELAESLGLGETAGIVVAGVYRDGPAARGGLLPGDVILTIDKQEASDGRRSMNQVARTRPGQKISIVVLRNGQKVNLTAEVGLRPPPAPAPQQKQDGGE
# T5: soluble AlgW (residues 30 to 389, without the N-terminal transmembrane segments) (Pseudomonas aeruginosa, UniProt Q9HVX1 30-389)
# T5 sequence: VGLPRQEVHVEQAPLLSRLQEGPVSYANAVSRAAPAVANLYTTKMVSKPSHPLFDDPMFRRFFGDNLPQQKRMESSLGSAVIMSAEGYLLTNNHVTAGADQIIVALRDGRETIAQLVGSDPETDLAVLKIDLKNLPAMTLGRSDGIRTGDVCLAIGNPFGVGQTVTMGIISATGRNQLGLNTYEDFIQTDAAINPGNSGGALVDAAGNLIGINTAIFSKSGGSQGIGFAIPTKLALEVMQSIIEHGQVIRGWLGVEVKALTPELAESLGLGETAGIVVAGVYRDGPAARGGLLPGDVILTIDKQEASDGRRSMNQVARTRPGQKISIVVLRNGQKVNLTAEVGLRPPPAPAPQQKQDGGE
# T6: AlgW-K287A (Pseudomonas aeruginosa, UniProt Q9HVX1 30-389, K287A)
# T6 sequence: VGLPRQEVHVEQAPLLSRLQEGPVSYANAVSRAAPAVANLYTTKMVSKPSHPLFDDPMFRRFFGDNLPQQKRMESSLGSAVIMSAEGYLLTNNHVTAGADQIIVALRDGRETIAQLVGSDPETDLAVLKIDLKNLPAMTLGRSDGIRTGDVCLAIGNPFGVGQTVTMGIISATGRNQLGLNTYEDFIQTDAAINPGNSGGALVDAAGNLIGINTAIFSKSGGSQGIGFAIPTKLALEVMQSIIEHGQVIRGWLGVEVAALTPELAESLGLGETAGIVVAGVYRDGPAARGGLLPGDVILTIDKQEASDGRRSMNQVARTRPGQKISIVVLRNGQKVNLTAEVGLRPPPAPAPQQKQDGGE
# Key:
# Test in all cases: cell-based or functional assay
# AlgW-Y212A = target: T1, AlgW-Y212A
# AlgW-W281A = target: T2, AlgW-W281A
# AlgW-R347A = target: T3, AlgW-R347A
# AlgW-E266A = target: T4, AlgW-E266A
# [1] = target: T5, soluble AlgW (residues 30 to 389, …)
# AlgW-K287A = target: T6, AlgW-K287A
binder,measurement,setting,value
SVRDELRWVF (C-terminal decapeptide of the periplasmic protein MucE of Pseudomonas aeruginosa; also called C-terminal decapeptide of MucE) [decapeptide SVRDELRWVF (MucE C-terminal tail)],half-maximal activation concentration of the peptide activator (cleavage of Abz-VLAG-pNA),AlgW-Y212A,2.12 μM
same,half-maximal activation concentration of the peptide activator (cleavage of Abz-VLAG-pNA),AlgW-W281A,1.51 μM
same,maximal cleavage activity of peptide-activated AlgW (Abz-VLAG-pNA),AlgW-W281A,10.3 μM min^−1
same,half-maximal activation concentration of the peptide activator (cleavage of Abz-VLAG-pNA),AlgW-R347A,1.85 μM
same,half-maximal activation concentration of the peptide activator (cleavage of Abz-VLAG-pNA),AlgW-E266A,1.08 μM
same,half-maximal activation concentration of the peptide activator (cleavage of Abz-VLAG-pNA),[1],2.02 μM
same,maximal cleavage activity of peptide-activated AlgW (Abz-VLAG-pNA),[1],165 μM min^−1
same,half-maximal activation concentration of the peptide activator (cleavage of Abz-VLAG-pNA),AlgW-K287A,6.53 μM
same,maximal cleavage activity of peptide-activated AlgW (Abz-VLAG-pNA),AlgW-K287A,49.4 μM min^−1
